According to patent US20150344570A1 (published 2015):

T1: FcγRIIb extracellular domain with C-terminal His tag (human, UniProt P31994 43-217)
T1 construct: extracellular domain; also called FcgRIIb; 2b
T1 sequence (looked up): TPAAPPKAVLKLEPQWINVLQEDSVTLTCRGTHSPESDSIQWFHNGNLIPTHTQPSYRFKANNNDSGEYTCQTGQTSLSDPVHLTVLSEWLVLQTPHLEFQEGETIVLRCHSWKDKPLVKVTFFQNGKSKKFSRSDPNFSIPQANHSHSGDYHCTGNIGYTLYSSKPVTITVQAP


These binders were tested against T1, FcγRIIb extracellular domain with … (assay: SPR (Biacore), relative binding).
Experimental: Analysis of interaction between objective antibody and the FcγR was carried out using Biacore T100 (GE Healthcare). HBS-EP+ (GE Healthcare) was used as the running buffer, and the measurement temperature was set to 25° C. Chips produced by immobilizing the antigen peptide by the amine coupling method to a Series S Sencor Chip CM5 (GE Healthcare), or alternatively, chips produced by allowing preliminarily biotinylated antigen peptides to interact with and immobilize onto a Series S Sensor Chip SA (certified) (GE Healthcare) were used. Antibodies of interest were captured onto an antigen peptide-immobilized chip, and allowed to interact to each FcγR diluted with running buffer. To regenerate and repeatedly use the chip, the antibodies captured on the chip were washed off by reacting 10 mM glycine-HCl, pH 1.5.

Row | Binder | Ho/Con_2b | He/Con_2b
1 | GpH7-B3 variant S337_07I/GpL16-k0 (antibody, human IgG1, kappa, also called Ho Ab S337_07I) heavy: not shown light: DIVMTQSPLSLPVTPGEPASISCQASESLVHSNRNTYLHWYLQKPGQSPQLLIYKVSNRFSGVPDRFSGSGSGTDFTLKISRVEAEDVGVYYCSQNTHVPPTFGQGTKVEIERTVAAPSVFIFPPSDEQLKSGTASVVCLLNNFYPREAKVQWKVDNALQSGNSQESVTEQDSKDSTYSLSSTLTLSKADYEKHKVYACEVTHQGLSSPVTKSFNRGEC | 96.6 % of HoCon Ab GpH7-B3/GpL16-k0 | 
2 | GpH7-A5/GpH7-B3 variant G237_02A/GpL16-k0 (antibody, human IgG1, kappa, also called He Ab G237_02A) heavy 1: not shown heavy 2: not shown light: DIVMTQSPLSLPVTPGEPASISCQASESLVHSNRNTYLHWYLQKPGQSPQLLIYKVSNRFSGVPDRFSGSGSGTDFTLKISRVEAEDVGVYYCSQNTHVPPTFGQGTKVEIERTVAAPSVFIFPPSDEQLKSGTASVVCLLNNFYPREAKVQWKVDNALQSGNSQESVTEQDSKDSTYSLSSTLTLSKADYEKHKVYACEVTHQGLSSPVTKSFNRGEC |  | 124 % of HeCon Ab GpH7-A5/GpH7-B3/GpL16-k0
3 | GpH7-B3 variant T335_16H/GpL16-k0 (antibody, human IgG1, kappa, also called Ho Ab T335_16H) heavy: not shown light: DIVMTQSPLSLPVTPGEPASISCQASESLVHSNRNTYLHWYLQKPGQSPQLLIYKVSNRFSGVPDRFSGSGSGTDFTLKISRVEAEDVGVYYCSQNTHVPPTFGQGTKVEIERTVAAPSVFIFPPSDEQLKSGTASVVCLLNNFYPREAKVQWKVDNALQSGNSQESVTEQDSKDSTYSLSSTLTLSKADYEKHKVYACEVTHQGLSSPVTKSFNRGEC | 97.2 % of HoCon Ab GpH7-B3/GpL16-k0 | 
4 | GpH7-B3 variant V266_06M/GpL16-k0 (antibody, human IgG1, kappa, also called Ho Ab V266_06M) heavy: not shown light: DIVMTQSPLSLPVTPGEPASISCQASESLVHSNRNTYLHWYLQKPGQSPQLLIYKVSNRFSGVPDRFSGSGSGTDFTLKISRVEAEDVGVYYCSQNTHVPPTFGQGTKVEIERTVAAPSVFIFPPSDEQLKSGTASVVCLLNNFYPREAKVQWKVDNALQSGNSQESVTEQDSKDSTYSLSSTLTLSKADYEKHKVYACEVTHQGLSSPVTKSFNRGEC | 231 % of HoCon Ab GpH7-B3/GpL16-k0 | 
5 | GpH7-B3 variant T335_18N/GpL16-k0 (antibody, human IgG1, kappa, also called Ho Ab T335_18N) heavy: not shown light: DIVMTQSPLSLPVTPGEPASISCQASESLVHSNRNTYLHWYLQKPGQSPQLLIYKVSNRFSGVPDRFSGSGSGTDFTLKISRVEAEDVGVYYCSQNTHVPPTFGQGTKVEIERTVAAPSVFIFPPSDEQLKSGTASVVCLLNNFYPREAKVQWKVDNALQSGNSQESVTEQDSKDSTYSLSSTLTLSKADYEKHKVYACEVTHQGLSSPVTKSFNRGEC | 96.1 % of HoCon Ab GpH7-B3/GpL16-k0 | 

Further lines, results first:

Row | Ho/Con_2b | He/Con_2b | Binder
6 | 108 % of HoCon Ab GpH7-B3/GpL16-k0 |  | GpH7-B3 variant T335_10E/GpL16-k0 (antibody, human IgG1, kappa, also called Ho Ab T335_10E) heavy: not shown light: DIVMTQSPLSLPVTPGEPASISCQASESLVHSNRNTYLHWYLQKPGQSPQLLIYKVSNRFSGVPDRFSGSGSGTDFTLKISRVEAEDVGVYYCSQNTHVPPTFGQGTKVEIERTVAAPSVFIFPPSDEQLKSGTASVVCLLNNFYPREAKVQWKVDNALQSGNSQESVTEQDSKDSTYSLSSTLTLSKADYEKHKVYACEVTHQGLSSPVTKSFNRGEC
7 | 103 % of HoCon Ab GpH7-B3/GpL16-k0 |  | GpH7-B3 variant Y296_20W/GpL16-k0 (antibody, human IgG1, kappa, also called Ho Ab Y296_20W) heavy: not shown light: DIVMTQSPLSLPVTPGEPASISCQASESLVHSNRNTYLHWYLQKPGQSPQLLIYKVSNRFSGVPDRFSGSGSGTDFTLKISRVEAEDVGVYYCSQNTHVPPTFGQGTKVEIERTVAAPSVFIFPPSDEQLKSGTASVVCLLNNFYPREAKVQWKVDNALQSGNSQESVTEQDSKDSTYSLSSTLTLSKADYEKHKVYACEVTHQGLSSPVTKSFNRGEC
8 | 99.6 % of HoCon Ab GpH7-B3/GpL16-k0 |  | GpH7-B3 variant S337_20W/GpL16-k0 (antibody, human IgG1, kappa, also called Ho Ab S337_20W) heavy: not shown light: DIVMTQSPLSLPVTPGEPASISCQASESLVHSNRNTYLHWYLQKPGQSPQLLIYKVSNRFSGVPDRFSGSGSGTDFTLKISRVEAEDVGVYYCSQNTHVPPTFGQGTKVEIERTVAAPSVFIFPPSDEQLKSGTASVVCLLNNFYPREAKVQWKVDNALQSGNSQESVTEQDSKDSTYSLSSTLTLSKADYEKHKVYACEVTHQGLSSPVTKSFNRGEC
9 | 98 % of HoCon Ab GpH7-B3/GpL16-k0 |  | GpH7-B3 variant S337_18N/GpL16-k0 (antibody, human IgG1, kappa, also called Ho Ab S337_18N) heavy: not shown light: DIVMTQSPLSLPVTPGEPASISCQASESLVHSNRNTYLHWYLQKPGQSPQLLIYKVSNRFSGVPDRFSGSGSGTDFTLKISRVEAEDVGVYYCSQNTHVPPTFGQGTKVEIERTVAAPSVFIFPPSDEQLKSGTASVVCLLNNFYPREAKVQWKVDNALQSGNSQESVTEQDSKDSTYSLSSTLTLSKADYEKHKVYACEVTHQGLSSPVTKSFNRGEC
10 |  | 104 % of HeCon Ab GpH7-A5/GpH7-B3/GpL16-k0 | GpH7-A5/GpH7-B3 variant A330_01G/GpL16-k0 (antibody, human IgG1, kappa, also called He Ab A330_01G) heavy 1: not shown heavy 2: not shown light: DIVMTQSPLSLPVTPGEPASISCQASESLVHSNRNTYLHWYLQKPGQSPQLLIYKVSNRFSGVPDRFSGSGSGTDFTLKISRVEAEDVGVYYCSQNTHVPPTFGQGTKVEIERTVAAPSVFIFPPSDEQLKSGTASVVCLLNNFYPREAKVQWKVDNALQSGNSQESVTEQDSKDSTYSLSSTLTLSKADYEKHKVYACEVTHQGLSSPVTKSFNRGEC
